Test results as given in article PMC8668987 (The Journal of Biological Chemistry, 2021).

Experiments:
[1] = biological target: endogenous SRC-2 of mouse E14 ES cells (mouse (endogenous in E14 ES cells), UniProt Q61026 1-1462); assay: co-IP
[2] = biological target: endogenous SRC-3 of mouse E14 ES cells (mouse (endogenous in E14 ES cells), UniProt O09000 1-1398); assay: co-IP
endogenous SRC-3 of mouse E14 ES cells, sequence (O09000 whole entry): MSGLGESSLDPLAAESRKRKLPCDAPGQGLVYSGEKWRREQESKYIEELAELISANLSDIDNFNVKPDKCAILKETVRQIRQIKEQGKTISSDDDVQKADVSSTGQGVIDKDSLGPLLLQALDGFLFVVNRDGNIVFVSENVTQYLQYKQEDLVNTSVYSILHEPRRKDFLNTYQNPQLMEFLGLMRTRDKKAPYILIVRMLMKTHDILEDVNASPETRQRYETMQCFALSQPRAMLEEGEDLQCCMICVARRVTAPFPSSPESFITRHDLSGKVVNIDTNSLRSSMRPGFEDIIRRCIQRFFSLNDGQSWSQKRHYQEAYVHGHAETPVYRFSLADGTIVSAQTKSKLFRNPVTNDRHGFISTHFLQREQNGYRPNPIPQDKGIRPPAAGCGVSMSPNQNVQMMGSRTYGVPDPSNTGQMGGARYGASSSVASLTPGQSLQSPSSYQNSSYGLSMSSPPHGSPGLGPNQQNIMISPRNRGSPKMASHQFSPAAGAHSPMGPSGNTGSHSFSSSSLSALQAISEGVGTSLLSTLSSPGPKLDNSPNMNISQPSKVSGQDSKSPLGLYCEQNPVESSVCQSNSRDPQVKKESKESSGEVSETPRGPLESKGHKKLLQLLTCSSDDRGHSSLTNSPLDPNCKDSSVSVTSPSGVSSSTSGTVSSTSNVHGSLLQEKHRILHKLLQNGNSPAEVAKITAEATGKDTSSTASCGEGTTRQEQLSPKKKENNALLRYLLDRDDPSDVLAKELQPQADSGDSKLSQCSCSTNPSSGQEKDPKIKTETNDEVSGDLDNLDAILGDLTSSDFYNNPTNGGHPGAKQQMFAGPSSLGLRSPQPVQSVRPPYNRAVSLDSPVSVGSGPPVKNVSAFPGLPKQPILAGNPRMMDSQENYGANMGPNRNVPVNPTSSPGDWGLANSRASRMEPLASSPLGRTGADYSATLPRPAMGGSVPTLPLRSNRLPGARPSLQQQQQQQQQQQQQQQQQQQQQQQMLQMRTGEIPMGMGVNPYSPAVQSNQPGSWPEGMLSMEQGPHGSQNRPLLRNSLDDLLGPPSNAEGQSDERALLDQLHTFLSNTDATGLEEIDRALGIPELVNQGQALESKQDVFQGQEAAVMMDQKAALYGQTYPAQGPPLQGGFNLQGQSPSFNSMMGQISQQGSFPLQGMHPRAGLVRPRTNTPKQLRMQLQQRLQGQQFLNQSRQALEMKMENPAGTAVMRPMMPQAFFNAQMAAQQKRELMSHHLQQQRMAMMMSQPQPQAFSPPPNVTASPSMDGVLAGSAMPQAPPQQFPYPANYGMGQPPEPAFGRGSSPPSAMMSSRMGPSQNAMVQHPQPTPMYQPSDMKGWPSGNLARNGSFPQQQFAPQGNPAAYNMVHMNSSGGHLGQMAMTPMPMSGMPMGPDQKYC

endogenous SRC-2 of mouse E14 ES cells, sequence (Q61026 whole entry): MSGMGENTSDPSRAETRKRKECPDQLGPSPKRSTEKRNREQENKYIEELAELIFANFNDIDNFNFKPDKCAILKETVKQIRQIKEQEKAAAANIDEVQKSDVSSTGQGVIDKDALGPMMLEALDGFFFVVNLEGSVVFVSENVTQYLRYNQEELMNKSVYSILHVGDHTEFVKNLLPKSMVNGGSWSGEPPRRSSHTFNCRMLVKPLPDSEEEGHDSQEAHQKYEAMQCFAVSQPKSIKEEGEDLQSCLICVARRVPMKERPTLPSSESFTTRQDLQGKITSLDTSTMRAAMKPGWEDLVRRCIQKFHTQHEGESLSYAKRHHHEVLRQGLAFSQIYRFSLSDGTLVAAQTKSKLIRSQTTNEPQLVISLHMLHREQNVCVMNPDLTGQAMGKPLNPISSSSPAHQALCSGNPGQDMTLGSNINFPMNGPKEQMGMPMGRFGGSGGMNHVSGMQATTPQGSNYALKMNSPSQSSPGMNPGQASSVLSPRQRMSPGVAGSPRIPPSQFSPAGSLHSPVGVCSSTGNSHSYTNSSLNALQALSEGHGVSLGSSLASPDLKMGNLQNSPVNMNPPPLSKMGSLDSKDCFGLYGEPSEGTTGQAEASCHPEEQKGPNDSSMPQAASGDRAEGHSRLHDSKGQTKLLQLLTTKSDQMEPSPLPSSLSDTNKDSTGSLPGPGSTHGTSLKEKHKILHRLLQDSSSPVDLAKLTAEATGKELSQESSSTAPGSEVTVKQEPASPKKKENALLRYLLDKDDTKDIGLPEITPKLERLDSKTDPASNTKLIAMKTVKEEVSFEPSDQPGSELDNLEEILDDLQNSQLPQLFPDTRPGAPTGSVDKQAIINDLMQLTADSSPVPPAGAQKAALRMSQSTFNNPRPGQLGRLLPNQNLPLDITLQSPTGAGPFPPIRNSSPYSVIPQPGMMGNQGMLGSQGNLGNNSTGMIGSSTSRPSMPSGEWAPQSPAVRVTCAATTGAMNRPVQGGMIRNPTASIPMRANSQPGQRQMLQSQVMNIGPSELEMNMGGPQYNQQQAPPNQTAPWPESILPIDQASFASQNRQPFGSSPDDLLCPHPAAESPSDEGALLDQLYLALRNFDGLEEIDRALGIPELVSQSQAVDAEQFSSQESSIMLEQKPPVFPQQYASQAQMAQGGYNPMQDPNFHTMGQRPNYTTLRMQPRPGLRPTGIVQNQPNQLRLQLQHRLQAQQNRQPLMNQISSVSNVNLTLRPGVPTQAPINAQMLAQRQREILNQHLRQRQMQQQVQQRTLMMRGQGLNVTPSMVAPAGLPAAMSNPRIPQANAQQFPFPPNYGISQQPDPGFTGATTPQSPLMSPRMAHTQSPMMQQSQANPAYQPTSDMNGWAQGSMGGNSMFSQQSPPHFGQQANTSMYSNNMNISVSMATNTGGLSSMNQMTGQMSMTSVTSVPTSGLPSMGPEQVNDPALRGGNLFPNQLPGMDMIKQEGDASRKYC

fold change of co-precipitated Sox2, TSA plus NAM against untreated cells [1]: 4.08 fold
fold change of co-precipitated Sox2, TSA plus NAM against untreated cells [2]: 7.53 fold
B1: endogenous Sox2 of mouse E14 ES cells (natural protein)
chain: not shown
